Results from patent WO2022210830A1 (dated 2022).

Tests used:
Experiment in all cases: cell-based or functional assay
[1] = target: Kappa strain spike protein on pseudotype virus (SARS-CoV-2, UniProt P0DTC2 14-1273)
[2] = target: Omicron strain spike protein on pseudotype virus (SARS-CoV-2, UniProt P0DTC2 14-1273)
[3] = target: Delta strain spike protein on pseudotype virus (SARS-CoV-2, UniProt P0DTC2 14-1273)

B1: 0210-28K (antibody, V domains shown)
VH: QMQLVQSGPEVKKPGTSVKVSCKASGFTFSISAVQWVRQARGQRLEWIGWIVVGSGNTNYAQKFQERVTITRDMSTSTAYMELSSLRFEDTAVYYCAAPYCGGDCSDGFDIWGQGTMVTVSS
VL: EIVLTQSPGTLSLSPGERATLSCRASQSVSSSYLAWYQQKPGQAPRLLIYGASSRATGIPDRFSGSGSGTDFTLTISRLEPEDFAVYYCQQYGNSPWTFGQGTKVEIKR
IC50, inhibition of pseudotype virus infection, 1st experiment [1]: 0.0108 µg/mL
IC50, inhibition of pseudotype virus infection, 2nd experiment [1]: 0.0203 µg/mL
IC50, inhibition of pseudotype virus infection (luciferase) [2]: ~200 pM
IC50, inhibition of pseudotype virus infection, 1st experiment [3]: < 0.0075 µg/mL
IC50, inhibition of pseudotype virus infection, 2nd experiment [3]: 0.0121 µg/mL
